This note sets out measurements from PMC6757032 (Nature Communications, 2019).

Assay [1] has as its target T1, full-length rat syntaxin-1A (reconstituted in liposomes, S-liposomes) (rat, UniProt P32851 1-288).
T1 construct: syntaxin-1A, rat, full length; For the NMR experiments the protein was 2H-I-13CH3-labelled (isoleucine delta1 methyl groups); also called Syx WT; liposome-anchored syntaxin-1; source: E. coli BL21(DE3), purified (Ni-NTA, thrombin, Superdex 200 in DPC), reconstituted in liposomes
The experiment in a line: SEC; S-liposomes (2.29 mM lipid) with full-length syntaxin-1A incubated 1 h with 1.2 µM αSNAP or 1.2 µM Munc18-1, then mixed with 1.2 µM of the other (at once or 12 h at 4 °C); 25 mM HEPES pH 7.4, 150 mM KCl, 1 mM TCEP; liposomes and bound proteins elute near the void volume. The settings on record: both partners purified.

For assay [2], the target named is T1, full-length rat syntaxin-1A …. Put plainly: liposome co-floatation; S-liposomes (0.75 mM lipid) with full-length syntaxin-1A pre-incubated 1 h at room temperature with 3 µM αSNAP (C-terminal His6-linker) or 3 µM Munc18-1, then 0-15 µM of the other protein (with or without 2.4 µM NSF) or 3 µM Munc18-1 at 4 °C for various times; Histodenz gradient, top layer by SDS-PAGE and Coomassie blue. The following applies: both partners purified.

T1 sequence (P32851 whole entry): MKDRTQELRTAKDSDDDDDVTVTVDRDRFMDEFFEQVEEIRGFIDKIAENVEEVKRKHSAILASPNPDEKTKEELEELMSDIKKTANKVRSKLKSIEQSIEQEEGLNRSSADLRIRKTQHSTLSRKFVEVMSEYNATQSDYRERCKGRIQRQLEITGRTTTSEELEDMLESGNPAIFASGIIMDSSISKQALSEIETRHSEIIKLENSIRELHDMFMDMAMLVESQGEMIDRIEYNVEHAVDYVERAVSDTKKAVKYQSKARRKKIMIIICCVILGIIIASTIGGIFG

B1: full-length Bos Taurus αSNAP (natural protein, UniProt P81125 1-295, looked up)
chain: MDNSGKEAEAMALLAEAERKVKNSQSFFSGLFGGSSKIEEACEIYARAANMFKMAKNWSAAGSAFCQAAHVHLQLQSKHDAATCFVDAGNAFKKADPQEAINCLMRAIEIYTDMGRFTIAAKHHISIAEIYETELVDIEKAIAHYEQSADYYKGEESNSSANKCLLKVAGYAAQLEQYQKAIDIYEQVGTNAMDSPLLKYSAKDYFFKAALCHFCIDMLNAKLAVQKYEELFPAFSDSRECKRIKKLLEAHEEQNVDSYTEAVKEYDSISRLDQWLTTMLLRIKKTIQGDEEDLR
notes: alpha-SNAP, Bos taurus, full length; also called WT αSNAP; source: E. coli BL21(DE3), purified (Glutathione Sepharose, thrombin, Superdex 75)
With B1, in assay [1], the binding result is recorded as “binds”.

B2: αSNAP with a C-terminal His6-linker (…) (natural protein, Bos Taurus, UniProt P81125 1-295, looked up)
chain: B1 chain
notes: Used in all liposome co-floatation assays so that the syntaxin-1 and αSNAP bands separate on the gels; also called αSNAP containing a linker at the C terminus; source: E. coli BL21(DE3), purified as the unmodified construct
As to B2, the binding result in assay [2] is reported as “binds”.
